The text below walks through data of patent US20230165938A1.

Common to all, as to assay: cell-based or functional assay
In assay [1] the target is wildtype human rod opsin (human) (UniProt P08100).
For assay [2], the target named is phosphonull Rod opsin 6A mutant (human) (UniProt P08100).
The target in assay [3] is wildtype human rod opsin (human) (UniProt P08100). The source holds these as a separate data set.

Turning to “wildtype human visual arrestin (from UniProt P10523 1-405)”, in assay [1], the Response decay (best fit Toff) of the light-driven BRET G protein (Go) activation response in Hek293T cells, arrestin co-expressed without GRK1, relative to RodWT alone (% of RodWT level) came out at 90; the Response decay rate of the BRET G protein activation light response, arrestin and GRK1 both co-expressed with RodWT, relative to RodWT alone is 2.5 x faster; the Toff of the BRET G protein activation light response, arrestin and GRK1 both co-expressed with RodWT (RodWT alone 166.16) is 65.6 s.

B1: human rhodopsin kinase (G protein receptor kinase 1) (enzyme, UniProt Q15835 1-560, looked up)
chain: MDFGSLETVVANSAFIAARGSFDGSSSQPSRDKKYLAKLKLPPLSKCESLRDSLSLEFESVCLEQPIGKKLFQQFLQSAEKHLPALELWKDIEDYDTADNDLQPQKAQTILAQYLDPQAKLFCSFLDEGIVAKFKEGPVEIQDGLFQPLLQATLAHLGQAPFQEYLGSLYFLRFLQWKWLEAQPMGEDWFLDFRVLGKGGFGEVSACQMKATGKLYACKKLNKKRLKKRKGYQGAMVEKKILMKVHSRFIVSLAYAFETKADLCLVMTIMNGGDIRYHIYNVNEENPGFPEPRALFYTAQIICGLEHLHQRRIVYRDLKPENVLLDNDGNVRISDLGLAVELLDGQSKTKGYAGTPGFMAPELLQGEEYDFSVDYFALGVTLYEMIAARGPFRARGEKVENKELKHRIISEPVKYPDKFSQASKDFCEALLEKDPEKRLGFRDETCDKLRAHPLFKDLNWRQLEAGMLMPPFIPDSKTVYAKDIQDVGAFSTVKGVAFDKTDTEFFQEFATGNCPIPWQEEMIETGIFGELNVWRSDGQMPDDMKGISGGSSSSSKSGMC
B1: in assay [2], the Response amplitude (A) of the BRET G protein activation light response, GRK1 only co-expressed with Rod6A (scaling factor A) was determined as 0.42. Also, the Response amplitude (A) of the BRET G protein activation light response, GRK1 (or GRK1+Arr) co-expressed with RodWT (% of RodWT amplitude) in assay [3] came out at 25.
